# Columns and labels:
# [1] = tested on: (4-trans-L-Hyp)-Ala-Ser-Chg-Gln-Ser-Leu-Dox
# [2] = tested on: Ac-(4-trans-L-Hyp)ASChgQ-SLacid
# [3] = tested on: Ac-(4-trans-L-Hyp)ASChgQ-SThi-acid
# [4] = tested on: Ac-(4-trans-L-Hyp)ASChgQ-StBUAla-DOX (3′)
# [5] = tested on: Glutaryl-(4-trans-L-Hyp)ASChgQ-SI-DOX (3′)
# [6] = tested on: Glutaryl-(4-trans-L-Hyp)ASChgQ-SV-DOX (3′)
# [7] = tested on: Glutaryl-(4-trans-L-Hyp)SSChgQ-SI-DOX (3′)
# [8] = tested on: Glutaryl-(4-trans-L-Hyp)SSChgQ-SL-DOX (3′)
# [9] = tested on: Malonyl-(4-trans-L-Hyp)ASChgQ-SL-DOX (3′)
# [10] = tested on: PEG(2)-(4-trans-L-Hyp)ASChgQ-SL-DOX (3′)
# [11] = tested on: PEG(2)-(4-trans-L-Hyp)ASChgQ-SThi-DOX (3′)
# [12] = tested on: PEG(2)-(4-trans-L-Hyp)SSChgQ-SL-DOX (3′)
# [13] = tested on: PEG(4)-(4-trans-L-Hyp)-SSChgQ-SL-DOX (3′)
# [14] = tested on: Succinyl-(4-trans-L-Hyp)ASChgQ-SAbu-DOX (3′)
# [15] = tested on: Succinyl-(4-trans-L-Hyp)ASChgQ-SI-DOX (3′)
# [16] = tested on: Succinyl-(4-trans-L-Hyp)ASChgQ-SThi-DOX (3′)
# [17] = tested on: Succinyl-(4-trans-L-Hyp)ASChgQ-SV-DOX (3′)
# [18] = tested on: Succinyl-(4-trans-L-Hyp)SSChgQ-SI-DOX (3′)
# [19] = tested on: Succinyl-3,4-(diOH)PASChgQ-SL-DOX (3′)
# [20] = tested on: [N-Ac-(4-trans-L-Hyp)]-Ala-Ser-Chg-Gln-Ser-Leu-Dox
# [21] = tested on: [N-Glutaryl-(4-trans-L-Hyp)]-Ala-Ser-Chg-Gln-Ser-Leu-Dox
substance,measurement,setting,value
free prostate specific antigen (PSA),time required for 50% cleavage of the oligopeptide,[1],50% cleavage occurred in less than 2 hours for those conjugates
same,Time to 50% Substrate Cleavage by PSA,[2],75 min
same,Time to 50% Substrate Cleavage by PSA,[3],20 min
same,Time to 50% Substrate Cleavage by PSA,[4],25 min
same,Time to 50% Substrate Cleavage by PSA,Ac-PASChgQ-SL-acid,150 min
same,Time to 50% Substrate Cleavage by PSA,Ac-PSSChgQ-SV-acid,120 min
same,time required for 50% cleavage of the oligopeptide,[5],50% cleavage occurred in less than 2 hours for those conjugates
same,time required for 50% cleavage of the oligopeptide,[6],50% cleavage occurred in less than 2 hours for those conjugates
same,time required for 50% cleavage of the oligopeptide,[7],50% cleavage occurred in less than 2 hours for those conjugates
same,time required for 50% cleavage of the oligopeptide,[8],50% cleavage occurred in less than 2 hours for those conjugates
same,time required for 50% cleavage of the oligopeptide,[9],50% cleavage occurred in less than 2 hours for those conjugates
same,Time to 50% Substrate Cleavage by PSA,[10],20 min
same,time required for 50% cleavage of the oligopeptide,[11],50% cleavage occurred in less than 2 hours for those conjugates
same,time required for 50% cleavage of the oligopeptide,[12],50% cleavage occurred in less than 2 hours for those conjugates
same,time required for 50% cleavage of the oligopeptide,[13],50% cleavage occurred in less than 2 hours for those conjugates
same,time required for 50% cleavage of the oligopeptide,[14],50% cleavage occurred in less than 2 hours for those conjugates
same,time required for 50% cleavage of the oligopeptide,[15],50% cleavage occurred in less than 2 hours for those conjugates
same,time required for 50% cleavage of the oligopeptide,[16],50% cleavage occurred in less than 2 hours for those conjugates
same,time required for 50% cleavage of the oligopeptide,[17],50% cleavage occurred in less than 2 hours for those conjugates
same,time required for 50% cleavage of the oligopeptide,[18],50% cleavage occurred in less than 2 hours for those conjugates
same,time required for 50% cleavage of the oligopeptide,[19],50% cleavage occurred in less than 2 hours for those conjugates
same,Time to 50% Substrate Cleavage by PSA,[20],20 min
same,time required for 50% cleavage of the oligopeptide,[21],50% cleavage occurred in less than 2 hours for those conjugates
